Experimental data as given in the nanobody polyreactivity screen of Harvey et al. (2022).

Assay: yeast display, Sf9 membrane polyspecificity reagent, FACS + sequencing; frameworks hold sequencing errors
How it was run: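 Galactose induction of a Saccharomyces cerevisiae BJ5465 synthetic nanobody display library ran 36–48 hours. The cells were then stained for 1 hour at 4 °C with 10% biotinylated, detergent-solubilized Sf9 membrane reagent, pulled down on streptavidin microbeads and FACS-sorted into low and high (top ~1%) gates on expression and reagent-binding fluorescence. Labels for polyreactivity follow the gate of origin.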

Row | Sequence | polyreactivity (PSR sort gate)
1 | QVQLVESGGGLVQAGGSLRLSCAASGSTFDRNVMGWYRQAPGKERELVAAISFSGGSTYYADSVKGRFTISRDTAKNTVYLQMNSLKPEDTAVYYCAADDGYSYIYAAGDYWGQGTQVTVSS | low polyreactivity
2 | QVQLVESGGGLVQAGGSLRLSCAASGSTFDRNVMGWYRQAPGKERELVAAISRVSSTNYADSVKGRFTISRDNAKNTVYLQMNSLKPEDTAVYYFAADGAGSIMNYWGQGTQVTVSS | low polyreactivity
3 | QVQLVESGGGLVQAGGSLRLSCAASGSTFDRYALGWYRQAPGKERELVAAITRGGSTYYADSVKGRFTISRDNAKNTVYLQLNSLKPDDTAVYYCAAAHWWVRVRGARYSYWGHGTQVTVSS | high polyreactivity
4 | QVQLVESGGGLVQAGGSLRLSCAASGSTFDRYAMGWYRQAPGKERELVAAISWSGGSTYYADSVKGRFTISRDNAKNTVYLQMNSLKREDTAVYYCARRYARITPVYPPLNYWGQGTQVTVSS | high polyreactivity
5 | QVQLVESGGGLVQAGGSLRLSCAASGSTFDRYAMGWYRQAPGKERELVAAITRGGSTYYADSVKGRFTISRDNAKNTVYLQMNSLKPEDTAVYYCAAAQWWFRVRGARYYYWGQGTQVTVSS | high polyreactivity
6 | QVQLVESGGGLVQAGGSLRLSCAASGSTFDSNAMGWYRQAPGKERELVAAIDYSSDSTYYADSVKGRFTISRDNAKNTVYLQMNSLKPEDTAVYYCAADIPPWGGDYWGQGTQVTVSS | low polyreactivity
7 | QVQLVESGGGLVQAGGSLRLSCAASGSTFDSNVMGWYRQAPGKERELVAAINYSGVRTYYADSVKGRFTISRDNAKNTVYLQMNSLKPEDTAVYYCNARLFSYRYPEGGYWGQGTQVTVSS | high polyreactivity
8 | QVQLVESGGGLVQAGGSLRLSCAASGSTFDSNVMGWYRQAPGKEWELVAAISIGDSTNYADSVKGRFTISRDNAKKTVYLQMNSLKPEDTAVYSCNATYSRGGYWYFGFDWGQGTQVTVSS | low polyreactivity
9 | QVQLVESGGGLVQAGGSLRLSCAASGSTFDSYAMGRYRQAPGKERELVAAITNGGSTYYADSVKGRFTISRDNAKNTVYLQMHSLKPEDTAGYYCATDDYLLDNLYDYWGQGTQVTVSS | low polyreactivity
10 | QVQLVESGGGLVQAGGSLRLSCAASGSTFDSYAMGWYRQAPGKERELVAAITTTGGSTFYADSVKGRFTISRDNAKNTVYLQMNSLKPEDTAVYFCAADDGWQEFEYWGQGTQVTVSS | low polyreactivity
11 | QVQLVESGGGLVQAGGSLRLSCAASGSTFDSYVMGLYRQAPGKERELFAAISSDDSTYYADSVKGRFTISRDNAKNTVYLQMNSLKPEDTAVYYCAATNFRDYYWSWKYYYWGQGTQVTVSS | low polyreactivity
12 | QVQLVESGGGLVQAGGSLRLSCAASGSTFDTNAMGWYRQAPGKERELVAAITSGGNTYADSVKGRFTISRDNAKNTVYLQMNSLKPEDTAVYYCAAEDVYTGWYDYWGQGTQVTVSS | low polyreactivity
13 | QVQLVESGGGLVQAGGSLRLSCAASGSTFDTYAMGGYRQAPGKERELVAAISYPGGNTYYADSVKGRFTISRDNAKNTVYLQMNRLKPEDTAVYYCNADVVDGGLAYDYWGQGTQVTVSS | low polyreactivity
14 | QVQLVESGGGLVQAGGSLRLSCAASGSTFDTYAMGWYRPAPGKERELVAAINSGGGTNYADSVKGLFTISRDNAKNTVYLQMNSLKPEDSSVYYCSTDIRRDAGGVDFDYWGQGTQLTVSS | low polyreactivity
15 | QVQLVESGGGLVQAGGSLRLSCAASGSTFDTYAMGWYRPAPGKERELVAAISRSGTSTYYADSVKGRFTISRDNAKNTVYLQMNSLKPEDSAVYYCAAYGPRVNGEIGREYYYWGQGTQVTVSS | low polyreactivity
16 | QVQLVESGGGLVQAGGSLRLSCAASGSTFDTYAMGWYRQAPGKERELVAAISSGGSTNYADSVKGRFTISRDNAKNTVYLQMNSLKPEDTAVYYCADSNKSVFPVYGTLDEYWGQGTQVTVSS | low polyreactivity
17 | QVQLVESGGGLVQAGGSLRLSCAASGSTFDTYAMGWYRQAPGKERELVAAISYSGASTYYADSVKGRFTISRDNAKNTVYLQMNSLKPEDTAVYYCSADGGYYWLYDYWGQGTQVTVSS | low polyreactivity
18 | QVQLVESGGGLVQAGGSLRLSCAASGSTFDVNALGWYSQAPGKDRELVAAISWNSGSTYYADSVKGRFTISRDNAKNTVYLQMNSLKPEDTAVYYCAATYGTGRRSKYGYWGQGTQVTVSS | high polyreactivity
19 | QVQLVESGGGLVQAGGSLRLSCAASGSTFDVNAMGWYRQAPGKERELVAAISFSGGSTYYADSVKGRFTISRDNAKNTVYLQMNSLKPEDTAVYYCADYDYWGQGTQVTVSS | low polyreactivity
20 | QVQLVESGGGLVQAGGSLRLSCAASGSTFDVYAMGWYRQAPGKERELVAAISRSGGSTYYADSVKGRFTISRDNAKNTVYLQMNSLKPEDTAVSYCNARLARWGSDEYNYWGQGTQVTVSS | low polyreactivity
21 | QVQLVESGGGLVQAGGSLRLSCAASGSTFDVYAMGWYRQAPGKERELVAAITWIGGSTYYADSVKGRFTISRDNAKNTVYLQMNSLKPDDTAVYYCARHDYGWVDYWGQGTQVTVSS | high polyreactivity
22 | QVQLVESGGGLVQAGGSLRLSCAASGSTFDVYAMGWYRQAPGKERELVATITGSGGSTYYADSVKGRFTISRDNAKNTVYLQMNSLKPEDTAVYYCAARYPVSGGYDYWGQGTQVTVSS | low polyreactivity

Row | Sequence | polyreactivity (PSR sort gate)
23 | QVQLVESGGGLVQAGGSLRLSCAASGSTFDYNAMGWYRPAPGKERELVAVISSGTRTYYADSVKGRFTISRDNAKNTVYLQMNSLKPEDTAVYFCNKRFYPEHYYWGQGTLVTVSS | high polyreactivity
24 | QVQLVESGGGLVQAGGSLRLSCAASGSTFDYNAMGWYRQAPGKEREFVAAISFSGSSTYYADSVKGRFTISRDNAKNTVYLQMNSLKPEDTAVYYCAKKVFASYRGYGYWGQGTQVTVSS | high polyreactivity
25 | QVQLVESGGGLVQAGGSLRLSCAASGSTFDYNAMGWYRQAPGKERELVAAITTVGITYYADSVKGRFTISRDNAKNTVYLQMNSLKPEDTAVYYCAARSVRYGGRYDYWGQGTQVTVSS | high polyreactivity
26 | QVQLVESGGGLVQAGGSLRLSCAASGSTFDYNAMGWYRQAPGKERELVAGISGGSSTNYADSVKGRFTISRDNAKNTVYLQMNSLKPEDTAVYYCNAQRLPLRYEMDYWGQGTQVTVSS | low polyreactivity
27 | QVQLVESGGGLVQAGGSLRLSCAASGSTFDYNTMGWYRQAPGKERELVAAISESGGSTYYADSVKGRFTISRDNAKNTVYLQMNSLKPEDTAVYYCATDDFGGYFGEYDYWGQGTQVTVSS | low polyreactivity
28 | QVQLVESGGGLVQAGGSLRLSCAASGSTFDYYAMGWYRQAPGKEREFVASINWNGARTYYADSVKGRFTISRDNAKNTVYLQMNSLKPEDTAVYYCAAYTKRYLYNYWGQGTQVTVSS | high polyreactivity
29 | QVQLVESGGGLVQAGGSLRLSCAASGSTFDYYAMGWYRQAPGKERELVAAISSGGSTNYADSVKGRFTISRDNAKNTVYLQMNSLKPEDTAVYYCAKDHAYTSAPHQYASEYYYWGQGTQVTVSS | low polyreactivity
30 | QVQLVESGGGLVQAGGSLRLSCAASGSTFDYYAMGWYRQAPGKERELVAAISWSGGSTYYADSVKGRFTISRDNEKNTVYLQMNSLKPEDTAVYYCAALYSYISGGYIYDYWGQGTQVTVSS | low polyreactivity
31 | QVQLVESGGGLVQAGGSLRLSCAASGSTFDYYAMGWYRQAPGKERELVAAITSTGRTYYADSVKGRFTISRDNAKNTVYLQMNSLKPEDTAVYYCAADLPWGPLFDYWGQGTQVTVSS | low polyreactivity
32 | QVQLVESGGGLVQAGGSLRLSCAASGSTFDYYTMGWYRQAPGKERELVAAISSSGGSTYYADSVTGRFTISRDNAKNTVYLQMNSLKPEDTAVYDCAARGYHYSYLRGDTGYYYWGQGTQVTVSS | low polyreactivity
33 | QVQLVESGGGLVQAGGSLRLSCAASGSTFEDNAMGWYRQAPGKERELVAVITWTGGSTYYADSVKGRFTISRDNAKNTVYLQMNSLKPEDTAGYYCAADGVVPGRFFWPAHAYDYCGQGTQVTVSS | low polyreactivity
34 | QVQLVESGGGLVQAGGSLRLSCAASGSTFEFYAMGWYRQAPGKERELVASITSSSGPTYYADSVKGRFTISRDNAKNTVYLQMNSLKPEDTAVYYCAKRPIRYYHLLRGNYWGQGTQVTVSS | low polyreactivity
35 | QVQLVESGGGLVQAGGSLRLSCAASGSTFEGNAMGWYRQAPGKERELVAAINSVAITNYADSVKGRFTISRDNAKNTVYLQMNSLKPEDTAVYYCNAQTNRPWGWPIGYDYWGQGTQVTVSS | low polyreactivity
36 | QVQLVESGGGLVQAGGSLRLSCAASGSTFEGNDMGWYRQAPGKERELVASITSDTSTYADSVKGRFTISRDNAKNTVYLQMNSLKPEDTAVYYCNTGSYAETYYWITDPYDYWGQGTQVNVSS | low polyreactivity
37 | QVQLVESGGGLVQAGGSLRLSCAASGSTFEIYAMGWYRQAPGKERELVAAITRSGRTNYADSVKGRFTISRDNAKNTVYLQMNSLKPEDTAVYYCAAGVWGRDRKYGYWGQGTQVTVSS | high polyreactivity
38 | QVQLVESGGGLVQAGGSLRLSCAASGSTFELYAMGLYRQAPGKERELVASITGDSTNYADSVKGRFTISRDNAKNTVYLQMNSLKPEDTAVYYCAAEYVPYYEYESWGQGTQVTVSS | low polyreactivity
39 | QVQLVESGGGLVQAGGSLRLSCAASGSTFEPNAMGWYRQAPGKERELVAAIDTDASTYYADSVKGRFTISRDNAKNTVYLQMNSLKPEDTAVYYCAADYYIAITYYDGDDYWGQGTQVTVSS | low polyreactivity
40 | QVQLVESGGGLVQAGGSLRLSCAASGSTFEPNGMGWYRQAPGKETELVAVITSGRTNYADSVKGSFTISRDNAKNTVYLQMNSLKPEDTAVYYCNAEGNGIYDYWGQGTQVTVSS | low polyreactivity
41 | QVQLVESGGGLVQAGGSLRLSCAASGSTFEQNAMGWYRPAPGKEREFVAAITGSGGSTYYADSVKGRFTISRDNAKNTVYLQMNSMKPEDTAVYYCAADIQDGWYWWDIYDYWGQGTQVTVSS | low polyreactivity
42 | QVQLVESGGGLVQAGGSLRLSCAASGSTFERYAMGWYRQEPGKEREFVAAISAIGDSTYYADSVKGRFTITRDNAKNTVYLQMNILKPEDTAVYYCAARYTPYHIGRGYYYWGQGTQVTVSS | high polyreactivity
43 | QVQLVESGGGLVQAGGSLRLSCAASGSTFETNAMGWYRQAPGKERELVAAIRWSTGNTYYADSVKGRFTISRDNAKNTVYLQMNSLKPEDTAVYDCAAYKGKHDKEGYWGQGTQVTVSS | low polyreactivity
